How the values were obtained:
Assay in all cases: EMSA
nsp8 = nsp8 (SARS-CoV-2, UniProt P0DTD1 3943-4140)
nsp7;nsp8ΔN = nsp7;nsp8ΔN (SARS-CoV-2;SARS-CoV-2, UniProt P0DTD1;P0DTD1 3860-3942;4019-4140, |)
nsp8ΔN = nsp8ΔN (SARS-CoV-2, UniProt P0DTD1 4019-4140)
nsp7;nsp8 = nsp7;nsp8 (SARS-CoV-2;SARS-CoV-2, UniProt P0DTD1;P0DTD1 3860-3942;3943-4140, |)
nsp7 = nsp7 (SARS-CoV-2, UniProt P0DTD1 3860-3942)

B1: 12-mer ssRNA (FAM, EMSA) (ssRNA)
RNA: GCUUUGAUUUCG
B1: binds (nsp8); no binding (nsp7;nsp8ΔN); no binding (nsp8ΔN). B1: binds (nsp7;nsp8); no binding (nsp7).
